Assay results as given in publication PMC6282759, “FlhF(T368A) modulates motility in the bacteriophage carrier state of Campylobacter jejuni” (Molecular Microbiology, 2018).

Tested on: Nc1nc2c(ncn2[C@@H]2O[C@H](COP(=O)(O)OP(=O)(O)OP(=O)(O)O)[C@@H](O)[C@H]2O)c(=O)[nH]1
Assay: purified protein
Details: 42 °C, Tris buffer, MgCl2, GTP 0.05-1 mM

FlhF (Campylobacter jejuni subsp. jejuni NCTC 11168 = ATCC 700819)
Km: 75 µM | kcat: 0.0115 s⁻¹
